Reference: patent EP1151102B1
Like-named read-outs stand apart in the source and are kept apart here.

Experiments:
[1] = biological target: human leptin receptor (short form), membrane-bound, from stably transfected CHO cells (human) (UniProt P48357); test: 125I-Leptin competition on membranes of CHO cells expressing human leptin receptor; IC50 vs WT
[2] = biological target: chimeric leptin receptor-EPO receptor (OBR-EPOR) on 32D-OBECA cells (human; murine) (UniProt P48357); test: cell-based or functional assay
[3] = biological target: human leptin receptor (short form), membrane-bound, from stably transfected CHO cells (human) (UniProt P48357); test: 125I-Leptin competition on membranes of CHO cells expressing human leptin receptor; IC50 vs WT; remark: listed apart in the source

| Substance | Receptor binding Rel. to WT. [1] | Bio activity Rel. to WT. [2] | Bioactivity Rel. to WT. [2] | Bio-activity Rel. to WT. [2] | Receptor binding Rel. to WT. [3] |
| --- | --- | --- | --- | --- | --- |
| rHu-Leptin 1-145 (ligand) | 1.3 rel. to WT | 0.14 rel. to WT |  |  |  |
| rHu-Leptin 1-145 expressed with the erythropoietin signal peptide (ligand) | 0.6 rel. to WT | 0.36 rel. to WT |  |  |  |
| rHu-Leptin 1-146 (wild type) (ligand) | 1 rel. to WT | 1 rel. to WT | 1 rel. to WT |  |  |
| rHu-Leptin 1-146 expressed with the erythropoietin signal peptide and human albumin prosequence (ligand) | 3.5 rel. to WT | 1.8 rel. to WT |  |  |  |
| rHu-Leptin 1-146 expressed with the native human erythropoietin signal peptide (ligand) | 1 rel. to WT | 0.95 rel. to WT |  |  |  |
| rHu-Leptin 1-146, site 4 (QKV > NKV) (ligand) | 1.7 rel. to WT |  | 0.73 rel. to WT |  |  |
| rHu-Leptin 1-146, site 5 (KVQ > NVT) (ligand) | 1.7 rel. to WT |  | 0.05 rel. to WT |  |  |
| rHu-Leptin 1-146, site 7 (QDD > NDT) (ligand) | 1.25 rel. to WT |  | 0.04 rel. to WT |  |  |
| rHu-Leptin 1-146, site 8 (DDT > NDT) (ligand) | 1.2 rel. to WT |  | 1.2 rel. to WT |  |  |
| rHu-Leptin 1-146, site 23a (DIS > NIT) (ligand) |  |  | 0.53 rel. to WT | 0.53 rel. to WT |  |
| rHu-Leptin 1-146, site 23a (DIS > NIT), erythropoietin signal peptide (ligand) | 0.5 rel. to WT |  |  | 0.79 rel. to WT |  |
| rHu-Leptin 1-146, site 25 (SHT > NHT) (ligand) | 0.4 rel. to WT |  | 0.02 rel. to WT |  |  |
| rHu-Leptin 1-146, site 26 (HTQ > NTT) (ligand) | 1.5 rel. to WT |  | 0.01 rel. to WT |  |  |
| rHu-Leptin 1-146, site 27 (TQS > NQT) (ligand) | 0.7 rel. to WT |  | 0.13 rel. to WT |  |  |
| rHu-Leptin 1-146, site 29 (SVS > NVT) (ligand) | 0.6 rel. to WT |  | 0.5 rel. to WT |  |  |
| rHu-Leptin 1-146, site 33 (KQK > NQT) (ligand) | 0.9 rel. to WT |  | 0.04 rel. to WT |  |  |
| rHu-Leptin 1-146, site 35 (KVT > NVT) (ligand) | 0.5 rel. to WT |  | 0.13 rel. to WT |  |  |
| rHu-Leptin 1-146, site 37 (TGL > NGT) (ligand) | 0.4 rel. to WT |  | 0.043 rel. to WT |  |  |
| rHu-Leptin 1-146, site 38 (GLD > NLT) (ligand) | 0.2 rel. to WT |  | 0.036 rel. to WT |  |  |
| rHu-Leptin 1-146, site 43 (PGL > NGT) (ligand) | 1.5 rel. to WT |  | 0.014 rel. to WT |  |  |
| rHu-Leptin 1-146, site 44 (GLH > NLT) (ligand) | 2 rel. to WT |  | 0.78 rel. to WT |  |  |
| rHu-Leptin 1-146, site 45 (CHP > NHT) (ligand) | 0.5 rel. to WT |  | 0.08 rel. to WT |  |  |
| rHu-Leptin 1-146, site 46 (HPI > NPT) (ligand) | 0.11 rel. to WT |  | 0.27 rel. to WT |  |  |
| rHu-Leptin 1-146, site 47 (PIL > NIT) (ligand) | 0.66 rel. to WT |  | 0.84 rel. to WT | 0.84 rel. to WT |  |
| rHu-Leptin 1-146, site 48 (ILT > NLT) (ligand) | 0.8 rel. to WT |  | 0.53 rel. to WT | 0.53 rel. to WT |  |
| rHu-Leptin 1-146, site 67 (SMP > NMT) (ligand) | 0.8 rel. to WT |  | 0.52 rel. to WT |  |  |

| Substance | Receptor binding Rel. to WT. [1] | Bio activity Rel. to WT. [2] | Bioactivity Rel. to WT. [2] | Bio-activity Rel. to WT. [2] | Receptor binding Rel. to WT. [3] |
| --- | --- | --- | --- | --- | --- |
| rHu-Leptin 1-146, site 68 (MPS > NAT) (ligand) | 0.8 rel. to WT |  | 0.036 rel. to WT |  |  |
| rHu-Leptin 1-146, site 69 (PSR > NST) (ligand) | 0.6 rel. to WT |  | 1.1 rel. to WT | 1.1 rel. to WT |  |
| rHu-Leptin 1-146, site 70 (SRN > NRT) (ligand) | 1 rel. to WT |  | 1 rel. to WT |  |  |
| rHu-Leptin 1-146, site 71 (RNV > NNT) (ligand) | 1.9 rel. to WT |  | 0.3 rel. to WT |  |  |
| rHu-Leptin 1-146, site 72 (NVI > NVT) (ligand) | 1.7 rel. to WT |  | 0.26 rel. to WT |  |  |
| rHu-Leptin 1-146, site 73 (VIQ > NIT) (ligand) | 8 rel. to WT |  | 0.01 rel. to WT |  |  |
| rHu-Leptin 1-146, site 77 (SND > NNT), expressed with the erythropoietin signal peptide (ligand) | 2.2 rel. to WT |  | < 0.02 rel. to WT |  |  |
| rHu-Leptin 1-146, site 92 (FSK > NST) (ligand) | 1.6 rel. to WT |  | 0.67 rel. to WT | 0.8 rel. to WT |  |
| rHu-Leptin 1-146, site 93 (SKS > NKT) (ligand) |  |  | 1.1 rel. to WT |  |  |
| rHu-Leptin 1-146, site 97 (HLP > NLT) (ligand) |  |  | 1.1 rel. to WT |  |  |
| rHu-Leptin 1-146, site 99 (PWA > NWT) (ligand) | 0.9 rel. to WT |  | 0.5 rel. to WT |  |  |
| rHu-Leptin 1-146, site 100a (PWAS > SNAT) (ligand) | 0.6 rel. to WT |  | 0.9 rel. to WT |  |  |
| rHu-Leptin 1-146, site 100b (WAS > NAS) (ligand) | 0.7 rel. to WT |  | 1.46 rel. to WT |  |  |
| rHu-Leptin 1-146, site 100c (WAS > NAT) (ligand) | 0.45 rel. to WT |  | 0.81 rel. to WT |  |  |
| rHu-Leptin 1-146, site 100d (PWAS > ANAT) (ligand) | 1.45 rel. to WT |  | 0.26 rel. to WT |  |  |
| rHu-Leptin 1-146, site 100e (WAS > TAS) (ligand) | > 1.9 rel. to WT |  | 0.83 rel. to WT |  |  |
| rHu-Leptin 1-146, site 101 (ASG > NST) (ligand) | 0.7 rel. to WT |  | 0.33 rel. to WT |  |  |
| rHu-Leptin 1-146, site 102 (SGL > NGT) (ligand) | 0.6 rel. to WT |  | 0.85 rel. to WT | 0.66 rel. to WT | 0.5 rel. to WT |
| rHu-Leptin 1-146, site 103 (GLE > NLT) (ligand) | 1 rel. to WT |  | 0.73 rel. to WT |  |  |
| rHu-Leptin 1-146, site 115 (EAS > NAT) (ligand) | 0.9 rel. to WT |  | 0.006 rel. to WT |  |  |
| rHu-Leptin 1-146, site 116 (ASG > NST) (ligand) | 0.9 rel. to WT |  | 0.56 rel. to WT |  |  |
| rHu-Leptin 1-146, site 117 (SGY > NGT) (ligand) | 1.9 rel. to WT |  | 0.01 rel. to WT |  |  |
| rHu-Leptin 1-146, site 118 (GYS > NYT) (ligand) | 0.8 rel. to WT |  | 3.8 rel. to WT |  |  |
| rHu-Leptin 1-146, site 119 (YST > NST) (ligand) | 0.8 rel. to WT |  | 0.02 rel. to WT |  |  |
| rHu-Leptin 1-146, site 120 (STE > NTT) (ligand) | 0.7 rel. to WT |  | 0.01 rel. to WT |  |  |
| rHu-Leptin 1-146, site 141 (DLS > NLT) (ligand) | 0.3 rel. to WT |  | 1 rel. to WT |  |  |
